Source: patent US20220202899A1, “COMPOSITION FOR PREVENTION OR TREATMENT OF HAIR LOSS INCLUDING HAPLN1” (HAPLNSCIENCE INC., priority 2019, published 2022)

Legend:
[1] = test system: TβRII; experiment: TβRII protein in human hair germinal matrix cells treated with HAPLN1 and/or HA, then TGF-β2 (Western blotting); type: cell-based
Description: (§1) Human hair germinal matrix cells were dispensed into a poly-D-lysine 6-well plate at a concentration of 5.0×10^4 per well and cultured for 24 hours. After 24 hours, the medium was removed and replaced with a new serum-free medium. HAPLN1 was treated with 25 ng/mL, HA was treated with 25 μg/mL, and after 1 hour, TGF-β2 (2 ng/mL) was treated. After 23 hours, cells were collected, a lysis buffer (25 mM Tris-HCl, 1 mM EDTA, 0.1% Triton-X100, phosphatase inhibitor, and protease inhibitor) was added, and all the cells were broken through sonication. TβRI and TβRII in the sample were measured using Western blotting. The optical density of TβRII was compared to that of GAPDH using a densitometer.

[2] = test system: TβRI; experiment: TβRI protein in human hair germinal matrix cells treated with HAPLN1 and/or HA, then TGF-β2 (Western blotting); type: cell-based; settings: HAPLN1 25 ng/mL; TGF-β2 2 ng/mL
Description: as §1

[3] = test system: TβRII; experiment: TβRII protein after exogenous HAPLN1 and/or HA in endogenous HAPLN1-deficient human hair germinal matrix cells; type: cell-based; settings: after HAPLN1 siRNA; HAPLN1 25 ng/mL and/or HA 25 μg/mL; TGF-β2 2 ng/mL, 23 hours
Description: The human hair germinal matrix cells were dispensed into a poly-D-lysine 6-well plate at a concentration of 5.0×10^4 per well and cultured for 24 hours. After 24 hours, the medium was removed and replaced with a low-serum medium. HAPLN1 siRNA and scrambled siRNA were added at a concentration of 25 pmol per well and incubated for 24 hours. After the siRNA and the medium were all removed, the medium was replaced with a serum-free medium having HAPLN1 (25 ng/mL) or HA (25 μg/mL) added thereto, and cultured for 1 hour. TGF-β2 (2 ng/mL) was treated and incubated for 23 hours. After collecting cells, a lysis buffer (25 mM Tris-HCl, 1 mM EDTA, 0.1% Triton-X100, phosphatase inhibitor, and protease inhibitor) was added, and all the cells were broken through sonication. TβRII in the sample was measured using Western blotting. The optical density of TβRII was compared to that of GAPDH using a densitometer.

[4] = test system: TβRII; experiment: TβRII protein in human hair germinal matrix cells deficient in endogenous HA (4-MU); type: cell-based; settings: 4-MU-treated cells; HAPLN1 25 ng/mL; TGF-β2 2 ng/mL
Description: 4-MU (4-methylumbelliferone) is an inhibitor of HA-producing hyaluronan synthase 2 (HAS2), which produces HA. In order to confirm the effect of HA produced in cells, HA production in cells was inhibited using 4-MU.
The human hair germinal matrix cells, in which the endogenous HA was inhibited by treating 4-MU, were dispensed into a poly-D-lysine 6-well plate at a concentration of 5.0×10^4 per well and cultured for 24 hours. After 24 hours, the medium was removed and replaced with a new serum-free medium. HAPLN1 was treated with 25 ng/mL, and after 1 hour, TGF-β2 (2 ng/mL) was treated. After 23 hours, cells were collected, a lysis buffer (25 mM Tris-HCl, 1 mM EDTA, 0.1% Triton-X100, phosphatase inhibitor, and protease inhibitor) was added, and all the cells were broken through sonication. HAS2 and TβRII in the sample were measured using Western blotting. The optical density of each of HAS2 and TβRII was compared to that of GAPDH using a densitometer.

[5] = test system: p-ERK1/2; experiment: p-ERK1/2 in human hair germinal matrix cells stimulated with TGF-β2 (Western blotting); type: cell-based; settings: TGF-β2 2 ng/mL, 1 hour
Description: (§2) Human hair germinal matrix cells were dispensed into a poly-D-lysine 6-well plate at a concentration of 5.0×10^4 per well and cultured for 24 hours. After 24 hours, the medium was removed and replaced with a new serum-free medium. HAPLN1 was treated with 25 ng/mL and HA with 25 μg/mL, incubated for 23 hours, and then stimulated with TGF-β2 (2 ng/mL) for 1 hour. After collecting cells, a lysis buffer (25 mM Tris-HCl, 1 mM EDTA, 0.1% Triton-X100, phosphatase inhibitor, and protease inhibitor) was added, and all the cells were broken through sonication. p-ERK1/2, p-Smad2, p-MEK1/2, and p-c-Raf in the sample were measured using Western blotting. Optical densities of p-ERK1/2, p-Smad2, p-MEK1/2, and p-c-Raf were compared to those of ERK1/2, Smad2/3, MEK1, and c-Raf using a densitometer. Here, ERK1/2, Smad2/3, MEK1, and c-Raf were used as loading controls.

[6] = test system: p-Smad2; experiment: p-Smad2 in human hair germinal matrix cells stimulated with TGF-β2 (Western blotting); type: cell-based; settings: HAPLN1 25 ng/mL and/or HA 25 μg/mL; TGF-β2 2 ng/mL, 1 hour
Description: as §2

[7] = test system: p-MEK1/2; experiment: p-MEK1/2 in human hair germinal matrix cells stimulated with TGF-β2 (Western blotting); type: cell-based; settings: HAPLN1 25 ng/mL and/or HA 25 μg/mL; TGF-β2 2 ng/mL, 1 hour
Description: as §2

[8] = test system: human hair germinal matrix cells; experiment: Cell proliferation of human hair germinal matrix cells, CCK-8 (Example 10); type: cell-based; settings: HAPLN1 25 ng/mL and/or HA 25 μg/mL; TGF-β2 2 ng/mL, 23 hours
Description: Human hair germinal matrix cells were dispensed into a poly-D-lysine 96-well plate at a concentration of 2.0×10^4 per well and cultured for 24 hours. After 24 hours, the medium was removed and replaced with a new serum-free medium. HAPLN1 was treated with 25 ng/mL and HA with 25 μg/mL, incubated for 1 hour, and then stimulated with TGF-β2 (2 ng/mL) for 23 hours. CCK-8 (Enzo Biochem, NY, USA) was treated and incubated at 37° C. for 1 hour.

[9] = test system: hair growth cycle; experiment: Intraperitoneal systemic administration of HAPLN1, mouse hair growth; type: in vivo; settings: 20-month-old C57 mice; 0.1 mg/kg intraperitoneally once every 3 days
Description: HAPLN1 in the body decreases with age. HAPLN1 was administered to 20-month-old C57 mice with a decrease in HAPLN1 in the body.
Since C57 mice had different hair growth cycles, the cycles of all mice were uniformly adjusted through two hair growth cycles (see the schedule of FIG. 19). Thereafter, HAPLN1 was injected intraperitoneally at 0.1 mg/kg once every 3 days.

B1: hyaluronan and proteoglycan link protein 1 (protein, UniProt P10915 16-354, looked up)
Hyaluronan and proteoglycan …: DHLSDNYTLDHDRAIHIQAENGPHLLVEAEQAKVFSHRGGNVTLPCKFYRDPTAFGSGIHKIRIKWTKLTSDYLKEVDVFVSMGYHKKTYGGYQGRVFLKGGSDSDASLVITDLTLEDYGRYKCEVIEGLEDDTVVVALDLQGVVFPYFPRLGRYNLNFHEAQQACLDQDAVIASFDQLYDAWRGGLDWCNAGWLSDGSVQYPITKPREPCGGQNTVPGVRNYGFWDKDKSRYDVFCFTSNFNGRFYYLIHPTKLTYDEAVQACLNDGAQIAKVGQIFAAWKILGYDRCDAGWLADGSVRYPISRPRRRCSPTEAAVRFVGFPDKKHKLYGVYCFRAYN
notes: extracellular matrix protein found in cartilage; stabilizes aggregates of hyaluronic acid and proteoglycans
[1]; HAPLN1 25 ng/mL or HA 25 μg/mL alone, TGF-β2 2 ng/mL after 1 hour, 23 hours
  TβRII protein (optical density compared to GAPDH): significantly increased
[1]; HAPLN1 25 ng/mL with HA 25 μg/mL, TGF-β2 2 ng/mL
  TβRII protein, HAPLN1 treated together with HA: further enhanced the increase of TβRII by HA
[2]
  concentration of TβRI: no change
[3]
  TβRII protein in endogenous HAPLN1-deficient cells: recovered
[4]
  TβRII level: recovered
[5]; HAPLN1 25 ng/mL and/or HA 25 μg/mL, 23 hours
  ERK1/2 signaling (p-ERK1/2 compared to ERK1/2): activated
[5]; HAPLN1 25 ng/mL with HA 25 μg/mL
  ERK1/2 signaling, HAPLN1 treated together with HA: enhanced the activation of ERK1/2 signaling of HA
[6]
  phosphorylation of Smad2: no change
[7]
  MEK1/2 activity (p-MEK1/2 compared to MEK1): increased activities
[8]
  cell proliferation (absorbance at 450 nm) compared to the control group: promoted
[9]
  entry into the anagen phase: entered the anagen phase in a short period of time
